The source of these data is patent US20240059789A1 (Janssen / Centocor, published 2024).

The target in this assay is Human PSMA on prostate cancer cell lines (C4-2B, 22RV1) (human, UniProt Q04609 1-750). Nature of the assay: cell-based or functional assay.
Sequence of Human PSMA on prostate cancer cell lines (C4-2B, 22RV1) (Q04609 whole entry): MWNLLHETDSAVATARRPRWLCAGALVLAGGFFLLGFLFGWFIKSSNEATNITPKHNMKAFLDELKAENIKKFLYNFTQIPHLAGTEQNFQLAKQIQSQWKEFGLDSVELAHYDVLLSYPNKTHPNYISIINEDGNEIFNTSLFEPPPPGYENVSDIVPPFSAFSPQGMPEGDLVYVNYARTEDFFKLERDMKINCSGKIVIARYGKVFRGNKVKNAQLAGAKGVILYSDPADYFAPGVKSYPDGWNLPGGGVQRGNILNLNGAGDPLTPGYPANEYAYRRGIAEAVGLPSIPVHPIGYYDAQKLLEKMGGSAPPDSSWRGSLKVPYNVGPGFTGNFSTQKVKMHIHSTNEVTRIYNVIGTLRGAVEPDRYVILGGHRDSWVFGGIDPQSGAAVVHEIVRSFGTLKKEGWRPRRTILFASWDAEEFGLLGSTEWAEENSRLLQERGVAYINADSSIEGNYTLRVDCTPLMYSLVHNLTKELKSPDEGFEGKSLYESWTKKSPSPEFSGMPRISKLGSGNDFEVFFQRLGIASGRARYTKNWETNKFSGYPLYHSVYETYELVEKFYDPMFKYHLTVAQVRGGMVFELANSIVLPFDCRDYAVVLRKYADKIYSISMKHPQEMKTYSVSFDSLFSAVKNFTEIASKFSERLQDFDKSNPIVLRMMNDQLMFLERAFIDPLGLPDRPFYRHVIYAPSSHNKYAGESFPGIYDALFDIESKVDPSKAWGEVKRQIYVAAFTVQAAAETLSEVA

B1: PS3B1354 (bispecific antibody, human IgG1, lambda, L234A L235A)
heavy 1: QVQLQQSGPRLVRPSQTLSLTCAISGDSVFNNNAAWSWIRQSPSRGLEWLGRTYYRSKWLYDYAVSVKSRITVNPDTSRNQFTLQLNSVTPEDTALYYCARGYSSSFDYWGQGTLVTVSSASTKGPSVFPLAPSSKSTSGGTAALGCLVKDYFPEPVTVSWNSGALTSGVHTFPAVLQSSGLYSLSSVVTVPSSSLGTQTYICNVNHKPSNTKVDKKVEPKSCDKTHTCPPCPAPEAAGGPSVFLFPPKPKDTLMISRTPEVTCVVVSVSHEDPEVKFNWYVDGVEVHNAKTKPREEQYNSTYRVVSVLTVLHQDWLNGKEYKCKVSNKALPAPIEKTISKAKGQPREPQVYTLPPSREEMTKNQVSLTCLVKGFYPSDIAVEWESNGQPENNYKTTPPVLDSDGSFLLYSKLTVDKSRWQQGNVFSCSVMHEALHNHYTQKSLSLSPGK
light 1: QSALTQPASVSGSPGQSITISCTGTSSNIGTYKFVSWYQQHPDKAPKVLLYEVSKRPSGVSSRFSGSKSGNTASLTISGLQAEDQADYHCVSYAGSGTLLFGGGTKLTVLGQPKAAPSVTLFPPSSEELQANKATLVCLISDFYPGAVTVAWKADSSPVKAGVETTTPSKQSNNKYAASSYLSLTPEQWKSHRSYSCQVTHEGSTVEKTVAPTECS
heavy 2: EVQLVESGGGLVQPGGSLRLSCAASGFTFSSYAMSWVRQAPGKGLEWVSAISGGSGSTYYADSVKGRFTISRDNSKNTLYLQMNSLRAEDSAVYYCAKDGVGATPYYFDYWGQGTLVTVSSASTKGPSVFPLAPSSKSTSGGTAALGCLVKDYFPEPVTVSWNSGALTSGVHTFPAVLQSSGLYSLSSVVTVPSSSLGTQTYICNVNHKPSNTKVDKKVEPKSCDKTHTCPPCPAPEAAGGPSVFLFPPKPKDTLMISRTPEVTCVVVSVSHEDPEVKFNWYVDGVEVHNAKTKPREEQYNSTYRVVSVLTVLHQDWLNGKEYKCKVSNKALPAPIEKTISKAKGQPREPQVYTLPPSREEMTKNQVSLTCLVKGFYPSDIAVEWESNGQPENNYKTTPPVLDSDGSFFLYSRLTVDKSRWQQGNVFSCSVMHEALHNHYTQKSLSLSPGK
light 2: QSVLTQPPSVSAAPGQKVTISCSGSSSNIGNNYVSWYQQLPGTAPKLLIYDNNKRPSGIPDRFSGSKSGTSATLGITGLQTGDEADYYCGTWDSSLSAYVFGTGTKVTVLGQPKAAPSVTLFPPSSEELQANKATLVCLISDFYPGAVTVAWKADSSPVKAGVETTTPSKQSNNKYAASSYLSLTPEQWKSHRSYSCQVTHEGSTVEKTVAPTECS
With B1, the “Cytotoxicity (C4-2B cells, 3:1 E:T ratio, 5 Day) at 3.3 nM” value is 30%; the “Cytotoxicity (C4-2B cells, 3:1 E:T ratio, 5 Day) at 10 nM” value came to 72%; the “Cytotoxicity (C4-2B cells, 3:1 E:T ratio, 5 Day) at 30 nM” value was determined as 84%.

B2: PS3B1355 (bispecific antibody, human IgG1, lambda, L234A L235A)
heavy 1: QVQLQQSGPRLVRPSQTLSLTCAISGDSVFNNNAAWSWIRQSPSRGLEWLGRTYYRSKWLYDYAVSVKSRITVNPDTSRNQFTLQLNSVTPEDTALYYCARGYSSSFDYWGQGTLVTVSSASTKGPSVFPLAPSSKSTSGGTAALGCLVKDYFPEPVTVSWNSGALTSGVHTFPAVLQSSGLYSLSSVVTVPSSSLGTQTYICNVNHKPSNTKVDKKVEPKSCDKTHTCPPCPAPEAAGGPSVFLFPPKPKDTLMISRTPEVTCVVVSVSHEDPEVKFNWYVDGVEVHNAKTKPREEQYNSTYRVVSVLTVLHQDWLNGKEYKCKVSNKALPAPIEKTISKAKGQPREPQVYTLPPSREEMTKNQVSLTCLVKGFYPSDIAVEWESNGQPENNYKTTPPVLDSDGSFLLYSKLTVDKSRWQQGNVFSCSVMHEALHNHYTQKSLSLSPGK
light 1: QSALTQPASVSGSPGQSITISCTGTSSNIGTYKFVSWYQQHPDKAPKVLLYEVSKRPSGVSSRFSGSKSGNTASLTISGLQAEDQADYHCVSYAGSGTLLFGGGTKLTVLGQPKAAPSVTLFPPSSEELQANKATLVCLISDFYPGAVTVAWKADSSPVKAGVETTTPSKQSNNKYAASSYLSLTPEQWKSHRSYSCQVTHEGSTVEKTVAPTECS
heavy 2: EVQLVESGGGLVQPGGSLRLSCAASGFTFSSYAMSWVRQAPGKGLEWVSAISGGSGSTYYADSVKGRFTISRDNSKNTLYLQMNSLRAEDSAVYYCAKDGVGATPYYFDYWGQGTLVTVSSASTKGPSVFPLAPSSKSTSGGTAALGCLVKDYFPEPVTVSWNSGALTSGVHTFPAVLQSSGLYSLSSVVTVPSSSLGTQTYICNVNHKPSNTKVDKKVEPKSCDKTHTCPPCPAPEAAGGPSVFLFPPKPKDTLMISRTPEVTCVVVSVSHEDPEVKFNWYVDGVEVHNAKTKPREEQYNSTYRVVSVLTVLHQDWLNGKEYKCKVSNKALPAPIEKTISKAKGQPREPQVYTLPPSREEMTKNQVSLTCLVKGFYPSDIAVEWESNGQPENNYKTTPPVLDSDGSFFLYSRLTVDKSRWQQGNVFSCSVMHEALHNHYTQKSLSLSPGK
light 2: QSVLTQPPSVSAAPGQKVTISCSGSSSNIGINYVSWYQQLPGTAPKLLIYDNNKRPSGIPDRFSGSKSGTSATLGITGLQTGDEADYYCGTWDSSLSAVVFGGGTKLTVLGQPKAAPSVTLFPPSSEELQANKATLVCLISDFYPGAVTVAWKADSSPVKAGVETTTPSKQSNNKYAASSYLSLTPEQWKSHRSYSCQVTHEGSTVEKTVAPTECS
As for B2, the “Cytotoxicity (C4-2B cells, 3:1 E:T ratio, 5 Day) at 0.3 nM” value is 92%; the “Cytotoxicity (C4-2B cells, 3:1 E:T ratio, 5 Day) at 1.1 nM” value was 97%; the “Cytotoxicity (C4-2B cells, 3:1 E:T ratio, 5 Day) at 3.3 nM” value was found to be 96%; the “Cytotoxicity (C4-2B cells, 3:1 E:T ratio, 5 Day) at 10 nM” value turned out to be 95%. Further, the “Cytotoxicity (C4-2B cells, 3:1 E:T ratio, 5 Day) at 30 nM” value worked out at 94%.

B3: PS3B1358 (bispecific antibody, human IgG1, lambda, L234A L235A)
heavy 1: QVQLQQSGPGLVKPSQTLSLTCAISGDSVFNNNAAWSWIRQSPSRGLEWLGRTYYRSKWLYDYAVSVKSRITINPDTSKNQFSLQLNSVTPEDTAVYYCARGYSSSFDYWGQGTLVTVSSASTKGPSVFPLAPSSKSTSGGTAALGCLVKDYFPEPVTVSWNSGALTSGVHTFPAVLQSSGLYSLSSVVTVPSSSLGTQTYICNVNHKPSNTKVDKKVEPKSCDKTHTCPPCPAPEAAGGPSVFLFPPKPKDTLMISRTPEVTCVVVSVSHEDPEVKFNWYVDGVEVHNAKTKPREEQYNSTYRVVSVLTVLHQDWLNGKEYKCKVSNKALPAPIEKTISKAKGQPREPQVYTLPPSREEMTKNQVSLTCLVKGFYPSDIAVEWESNGQPENNYKTTPPVLDSDGSFLLYSKLTVDKSRWQQGNVFSCSVMHEALHNHYTQKSLSLSPGK
light 1: QSALTQPASVSGSPGQSITISCTGTSSNIGTYKFVSWYQQHPGKAPKVMIYEVSKRPSGVSNRFSGSKSGNTASLTISGLQAEDEADYYCVSYAGSGTLLFGGGTKLTVLGQPKAAPSVTLFPPSSEELQANKATLVCLISDFYPGAVTVAWKADSSPVKAGVETTTPSKQSNNKYAASSYLSLTPEQWKSHRSYSCQVTHEGSTVEKTVAPTECS
heavy 2: EVQLVESGGGLVQPGGSLRLSCAASGFTFSSYAMSWVRQAPGKGLEWVSAISGGSGSTYYADSVKGRFTISRDNSKNTLYLQMNSLRAEDSAVYYCAKDGVGATPYYFDYWGQGTLVTVSSASTKGPSVFPLAPSSKSTSGGTAALGCLVKDYFPEPVTVSWNSGALTSGVHTFPAVLQSSGLYSLSSVVTVPSSSLGTQTYICNVNHKPSNTKVDKKVEPKSCDKTHTCPPCPAPEAAGGPSVFLFPPKPKDTLMISRTPEVTCVVVSVSHEDPEVKFNWYVDGVEVHNAKTKPREEQYNSTYRVVSVLTVLHQDWLNGKEYKCKVSNKALPAPIEKTISKAKGQPREPQVYTLPPSREEMTKNQVSLTCLVKGFYPSDIAVEWESNGQPENNYKTTPPVLDSDGSFFLYSRLTVDKSRWQQGNVFSCSVMHEALHNHYTQKSLSLSPGK
light 2: QSVLTQPPSVSAAPGQKVTISCSGSSSNIGINYVSWYQQLPGTAPKLLIYDNNKRPSGIPDRFSGSKSGTSATLGITGLQTGDEADYYCGTWDSSLSAVVFGGGTKLTVLGQPKAAPSVTLFPPSSEELQANKATLVCLISDFYPGAVTVAWKADSSPVKAGVETTTPSKQSNNKYAASSYLSLTPEQWKSHRSYSCQVTHEGSTVEKTVAPTECS
As for B3, the “Cytotoxicity (C4-2B cells, 3:1 E:T ratio, 5 Day) at 0.3 nM” value is 68%; the “Cytotoxicity (C4-2B cells, 3:1 E:T ratio, 5 Day) at 1.1 nM” value was 90%; the “Cytotoxicity (C4-2B cells, 3:1 E:T ratio, 5 Day) at 3.3 nM” value is 93%; the “Cytotoxicity (C4-2B cells, 3:1 E:T ratio, 5 Day) at 10 nM” value worked out at 94%. Moreover, the “Cytotoxicity (C4-2B cells, 3:1 E:T ratio, 5 Day) at 30 nM” value was 88%.

B4: PSMB937 (bispecific antibody, human IgG1, lambda, L234A L235A)
heavy 1: QVQLQQSGPGLVKPSQTLSLTCAISGDSVFNNNAAWSWIRQSPSRGLEWLGRTYYRSKWLYDYAVSVKSRITINPDTSKNQFSLQLNSVTPEDTAVYYCARGYSSSFDYWGQGTLVTVSSASTKGPSVFPLAPSSKSTSGGTAALGCLVKDYFPEPVTVSWNSGALTSGVHTFPAVLQSSGLYSLSSVVTVPSSSLGTQTYICNVNHKPSNTKVDKKVEPKSCDKTHTCPPCPAPEAAGGPSVFLFPPKPKDTLMISRTPEVTCVVVSVSHEDPEVKFNWYVDGVEVHNAKTKPREEQYNSTYRVVSVLTVLHQDWLNGKEYKCKVSNKALPAPIEKTISKAKGQPREPQVYTLPPSREEMTKNQVSLTCLVKGFYPSDIAVEWESNGQPENNYKTTPPVLDSDGSFLLYSKLTVDKSRWQQGNVFSCSVMHEALHNHYTQKSLSLSPG
light 1: QSALTQPASVSGSPGQSITISCTGTSSNIGTYKFVSWYQQHPGKAPKVMIYEVSKRPSGVSNRFSGSKSGNTASLTISGLQAEDEADYYCVSYAGSGTLLFGGGTKLTVLGQPKAAPSVTLFPPSSEELQANKATLVCLISDFYPGAVTVAWKADSSPVKAGVETTTPSKQSNNKYAASSYLSLTPEQWKSHRSYSCQVTHEGSTVEKTVAPTECS
heavy 2: EVQLVESGGGLVQPGGSLRLSCAASGFTFSSYAMSWVRQAPGKGLEWVSAISGGSGSTYYADSVKGRFTISRDNSKNTLYLQMNSLRAEDSAVYYCAKDGVGATPYYFDYWGQGTLVTVSSASTKGPSVFPLAPSSKSTSGGTAALGCLVKDYFPEPVTVSWNSGALTSGVHTFPAVLQSSGLYSLSSVVTVPSSSLGTQTYICNVNHKPSNTKVDKKVEPKSCDKTHTCPPCPAPEAAGGPSVFLFPPKPKDTLMISRTPEVTCVVVSVSHEDPEVKFNWYVDGVEVHNAKTKPREEQYNSTYRVVSVLTVLHQDWLNGKEYKCKVSNKALPAPIEKTISKAKGQPREPQVYTLPPSREEMTKNQVSLTCLVKGFYPSDIAVEWESNGQPENNYKTTPPVLDSDGSFFLYSRLTVDKSRWQQGNVFSCSVMHEALHNHYTQKSLSLSPG
light 2: QSVLTQPPSVSAAPGQKVTISCSGSSSNIGNNYVSWYQQLPGTAPKLLIYDNNKRPSGIPDRFSGSKSGTSATLGITGLQTGDEADYYCGTWDSSLSAYVFGTGTKVTVLGQPKAAPSVTLFPPSSEELQANKATLVCLISDFYPGAVTVAWKADSSPVKAGVETTTPSKQSNNKYAASSYLSLTPEQWKSHRSYSCQVTHEGSTVEKTVAPTECS
In the case of B4, the “Cytotoxicity (C4-2B cells, 3:1 E:T ratio, 5 Day) at 30 nM” value turned out to be 41%.
